Assay results from patent US20240376455.

System: T1, LPG10159 (Contaminated/multiple)
T1 sequence: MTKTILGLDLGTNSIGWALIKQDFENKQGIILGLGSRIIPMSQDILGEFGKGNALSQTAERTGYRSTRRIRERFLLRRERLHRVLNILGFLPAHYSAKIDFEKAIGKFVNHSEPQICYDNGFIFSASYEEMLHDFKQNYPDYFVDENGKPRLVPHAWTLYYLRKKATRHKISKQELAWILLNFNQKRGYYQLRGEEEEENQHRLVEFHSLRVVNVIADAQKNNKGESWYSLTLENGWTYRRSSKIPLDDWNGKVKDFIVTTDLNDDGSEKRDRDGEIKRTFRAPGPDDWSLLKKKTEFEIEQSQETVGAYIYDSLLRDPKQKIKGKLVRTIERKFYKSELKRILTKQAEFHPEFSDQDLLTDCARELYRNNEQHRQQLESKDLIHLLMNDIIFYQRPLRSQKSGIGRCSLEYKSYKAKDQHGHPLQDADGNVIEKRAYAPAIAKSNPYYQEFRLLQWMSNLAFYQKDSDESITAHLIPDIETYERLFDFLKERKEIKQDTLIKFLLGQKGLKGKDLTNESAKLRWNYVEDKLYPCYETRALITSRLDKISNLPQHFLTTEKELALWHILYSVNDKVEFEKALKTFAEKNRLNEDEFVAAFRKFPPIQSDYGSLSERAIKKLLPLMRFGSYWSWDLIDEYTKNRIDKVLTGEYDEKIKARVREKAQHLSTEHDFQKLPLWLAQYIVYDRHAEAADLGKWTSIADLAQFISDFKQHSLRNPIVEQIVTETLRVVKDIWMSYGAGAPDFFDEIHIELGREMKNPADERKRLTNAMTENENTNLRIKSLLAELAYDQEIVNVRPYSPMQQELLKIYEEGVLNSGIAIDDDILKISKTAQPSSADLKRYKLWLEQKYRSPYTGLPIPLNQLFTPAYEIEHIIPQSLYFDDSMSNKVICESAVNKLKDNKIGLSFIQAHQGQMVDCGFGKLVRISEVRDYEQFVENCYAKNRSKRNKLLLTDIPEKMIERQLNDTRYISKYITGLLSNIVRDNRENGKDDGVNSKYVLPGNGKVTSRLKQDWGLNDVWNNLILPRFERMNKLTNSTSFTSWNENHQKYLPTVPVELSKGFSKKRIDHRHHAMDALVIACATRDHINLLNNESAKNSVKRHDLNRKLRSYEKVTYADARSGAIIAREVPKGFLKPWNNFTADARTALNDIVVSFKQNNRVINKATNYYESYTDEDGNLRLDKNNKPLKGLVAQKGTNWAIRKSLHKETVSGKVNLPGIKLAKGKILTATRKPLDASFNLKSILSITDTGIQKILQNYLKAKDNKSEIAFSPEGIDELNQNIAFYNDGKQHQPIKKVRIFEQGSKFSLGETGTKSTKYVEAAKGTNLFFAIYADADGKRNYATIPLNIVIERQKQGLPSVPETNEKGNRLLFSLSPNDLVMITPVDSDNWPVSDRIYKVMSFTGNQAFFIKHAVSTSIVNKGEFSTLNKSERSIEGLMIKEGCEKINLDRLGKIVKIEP
Assay: cleavage_in_vitro
Conditions: PAM SEQ ID 83

## GUUGUGAAUUGCUUUAAAGAAAGCAAUUCACAAUAAGGAUUAUUCCGUUGUGAAAACAUCUAGCGCCUCGUCUAUCUACGGGGCAUUUU / GATATAGACGTTGTGGCTGTTGTAGTAGAAATTC / GAATTTCTACTACAACAGCCACAACGTCTATATC [LPG10159 sgRNA L2 ; Library 2 target AGAAATTC]
  activity (% target strand cleaved): 2.5
